One molecule from PMC2978106, “The Arabidopsis ABA-Activated Kinase OST1 Phosphorylates the bZIP Transcription Factor ABF3 and Creates a 14-3-3 Binding Site Involved in Its Turnover” (PLoS ONE, 2010) can be followed below.

Where no end group is shown, it is not given here. [ ]: non-standard residue; d: D form. pT = C[C@@H](OP(=O)(O)O)[C@H](N)C(=O)O

This test has as its target T1, Arabidopsis 14-3-3 protein GF14phi fused to GST (Arabidopsis, UniProt P46077 1-267).
T1 construct: 14-3-3 protein GF14phi of Arabidopsis; also called GST-14-3-3; source: E. coli, loaded on glutathione beads
T1 sequence (looked up): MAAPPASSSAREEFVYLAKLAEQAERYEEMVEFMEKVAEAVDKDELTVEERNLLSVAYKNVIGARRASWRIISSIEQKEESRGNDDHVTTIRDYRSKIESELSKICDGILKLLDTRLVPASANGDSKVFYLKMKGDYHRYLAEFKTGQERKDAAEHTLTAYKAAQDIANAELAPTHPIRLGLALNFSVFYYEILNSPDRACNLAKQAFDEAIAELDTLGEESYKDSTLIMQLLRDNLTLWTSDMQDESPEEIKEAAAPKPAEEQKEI
The experiment in a line: pull-down; GST-GF14phi (0.4 nmole) on glutathione beads; 15 µM peptide phosphorylated by OST1 with ATP^γ32; 30 min at 25°C; 20 mM Tris-HCl pH 7.5, 150 mM NaCl, 1 mM CaCl2, 1 mM DTT, 0.05% Tween20; bound peptide counted by Cerenkov counting. The following applies: both partners purified.

B1: ABF3T451 peptide phosphorylated by OST1 (peptide)
peptide: KKRQCLRRTL[pT]GPW
modifications: also: phosphothreonine at T451 (T9 or T11 of chain, not fixed by letters)
notes: residues printed before L446 of the ABF3T451 peptide; C-terminal end of ABF3 (C4 domain, LXRXXTXP motif with T451), Arabidopsis thaliana, At4g34000; It holds two threonines (T449, T451); also called pABF3T451; phospho-ABF3T451
As to B1, the binding result was “binds”.
